Results taken from paper PMC9820293.

Experiments:
[1] = biological target: Bovine cardiac actin, filamentous (F-actin) (bovine) (UniProt Q3ZC07)
[2] = biological target: Bovine cardiac actin, filamentous (F-actin) (bovine) (UniProt Q3ZC07); remark: listed apart in the source
[3] = biological target: Bovine cardiac actin, filamentous (F-actin) (bovine) (UniProt Q3ZC07); remark: listed apart in the source
[4] = biological target: Bovine cardiac actin, filamentous (F-actin) (bovine) (UniProt Q3ZC07); test: co-sedimentation; Tpm co-sedimented with F-actin at room temperature; apparent affinity; K50% is the Tpm concentration at which half of the actin becomes saturated; three measurements averaged; as described in refs 27, 28
[5] = biological target: Bovine cardiac actin, filamentous (F-actin) (bovine) (UniProt Q3ZC07); test: temperature dependence of light scattering; thermally induced dissociation of Tpm complexes with F-actin stabilized by phalloidin; light scattering at 90°, 350 nm, heating 1 °C/min; Tdiss is the temperature at which a 50% decrease in light scattering occurs; no troponin

C50, myosin concentration at which the sliding velocity is half-maximal, in vitro motility assay; filament: F-actin alone [1] [µg/mL]	C50, myosin concentration at which the sliding velocity is half-maximal, in vitro motility assay; filament: F-actin with D219V Tpm [1] [µg/mL]	C50, myosin concentration at which the sliding velocity is half-maximal, in vitro motility assay; filament: F-actin with WT Tpm [1] [µg/mL]	Vmax, sliding velocity at saturated myosin concentration, in vitro motility assay; filament: F-actin alone [1] [µm/s]	Vmax, sliding velocity at saturated myosin concentration, in vitro motility assay; filament: F-actin with D219V Tpm [1] [µm/s]	Vmax, sliding velocity at saturated myosin concentration, in vitro motility assay; filament: F-actin with WT Tpm [1] [µm/s]	V0, sliding velocity at low Ca2+ concentration, in vitro motility assay; regulated thin filament of F-actin, D219V Tpm and troponin [2] [µm/s]	V0, sliding velocity at low Ca2+ concentration, in vitro motility assay; regulated thin filament of F-actin, WT Tpm and troponin [2] [µm/s]	Vmax, sliding velocity at saturated Ca2+ concentration, in vitro motility assay; regulated thin filament of F-actin, D219V Tpm and troponin [2] [µm/s]	Vmax, sliding velocity at saturated Ca2+ concentration, in vitro motility assay; regulated thin filament of F-actin, WT Tpm and troponin [2] [µm/s]	C50 of LA myosin for the sliding velocity of thin filaments at saturated Ca2+ concentration, in vitro motility assay; thin filament with D219V Tpm [3] [µg/mL]	C50 of LA myosin for the sliding velocity of thin filaments at saturated Ca2+ concentration, in vitro motility assay; thin filament with WT Tpm [3] [µg/mL]	K50% [4] [µM]	Tdiss [5] [°C]	C50 of LV myosin for the sliding velocity of thin filaments at saturated Ca2+ concentration, in vitro motility assay; thin filament with D219V Tpm [3] [µg/mL]	C50 of LV myosin for the sliding velocity of thin filaments at saturated Ca2+ concentration, in vitro motility assay; thin filament with WT Tpm [3] [µg/mL]	Substance
18	43	55.4	3.26	3.32	1.25	1.42	0.39	8.45	7.17	47.2	45.3					Atrial myosin from the left atrium of the pig (from UniProt F1RRT2 1-197; F1SSF9 1-175) (complex)
												2.64	45.3			Human Tpm1.1 D219V mutant (natural protein)
												2.88	43.3			Human Tpm1.1 WT (cardiac tropomyosin 1.1) (natural protein)
20.1	26	54.9	2.88	2.93	1.5	0.81	0.24	4.22	3.73					25.9	30.1	Ventricular myosin from the left ventricle of the pig (from UniProt P79293 1-1935) (complex)
